Source: US20230220053A1 (published 2023)
Where a chain is given by its changes, count along the chain named.

B1: 2020EP54-H01 scFv (scFv)
scFv: QVQLVESGGGVVQPGRSLRLSCAASGFTFSSYGMHWVRQAPGKGLEWVAVISYDGSNKYYADSVKGRFTISRDNSKNTLYLQMNSLRAEDTAVYYCAKGRGWYLDYWGQGTLVTVSSGGGGSGGGGSGGGGSNFMLTQPPSVSVSPGQTASITCSGDKLGDKYACWYQQKPGQSPVLVMYEDYKRPSGIPARFSGSNSGNTATLTISRVEGGDEGDYYCQVWDSRGPEVIFGGGTKLTVL
notes: also called 2020EP054-H01
B2: 2020EP66-A07 scFv (scFv)
scFv: EVQLVQSGAEVKKPGSSVKVSCKASGGTFSSYAISWVRQAPGQGLEWMGGIIPIFGTANYAQKFQGRVTITADESTSTAYMELSSLRSEDTAVYYCASGGDGYNYDYYYYGMDVWGQGTTVTVSSGGGGSGGGGSGGGGSSYELTQPPSVSVSPGQTATITCSGEKLGDKYSFWYQQKPGQSPVMVMYQDDQRPSGTPERFSGSNSGNTATLTISGTRATDEADYYCQAWDNSASVFGSGTKLTVL
B3: 2020EP64-C08 scFv (scFv)
scFv: QMQLVQSGAEVKKPGSSVKVSCKASGGTFSSYAISWVRQAPRQGLEWMGRIIPILGIANYAQKFQGRVTITADKSTSTAYMELSSLRSEDTAVYYCASSYGGNQLWGQGTLVTVSSGGGGSGGGGSGGGGSQSVLTQPPSASGTPGQRVTISCSGSDSNIGTNTVNWYQQVPGTAPKVLIYSTHQRPSGVPDRFSASKSGTSASLAISGLQSEDEADYYCSSWDVSLNAWVFGGGTKVTVL
B4: 2020EP71-E04 scFv (scFv)
scFv: QVQLVQSGGGVVQPGRSLRLSCAASGFTFSSYGMHWVRQAPGKGLEWVAVISYDGSNKYYADSVKGRFTISRDNSKNTLYLQMNSLRAEDTAVYYCAKDRAYYYGYYYYYYGMDVWGQGTTVTVSSGGGGSGGGGSGGGGSQSVLTQPPSVSGAPGQRVTISCTGSSSNIGAGYDVHWYQQLPGTAPKLLIYGNSNRPSGVPDRFSGSKSGTSASLAITGLQAEDEADYYCATWDDSLSGPVFGGGTKVTVL
B5: 2020EP60-A12 scFv (scFv)
scFv: EVQLVESGGGVVQPGRSLRLSCAASGFTFSSYGMHWVRQAPGKGLEWVAVISYDGSNKYYADSVKGRFTISRDNSKNTLYLQMNSLRAEDTAVYYCAKGLEYYFDYWGQGTLVTVSSGGGGSGGGGSGGGGSSYELTQPPSLSVSPGQTARITCSGDALPEQYAYWYQQKPGQAPVLVIYKDSERPSGIPERFSGSSSGTTVTLTISGVQAEDEADYYCQAWDSSTVVFGGGTKLTVL
B6: 2020EP60-F05 scFv (scFv)
scFv: QVQLVESGGGVVQPGGSLRLSCAASGFTFSSYGMHWVRQAPGKGLEWVAVISYDGSNKYYADSVKGRFTISRDNSKNTLYLQMNSLRAEDTAVYYCAKARVALGYFDWLLYDGMDVWGQGTTVTVSSGGGGSGGGGSGGGGSSSELTQPPSVSVSPGQTASITCSGDKLGNKYVFWYQQKPGQSPILVIYQDNRRPSGIPERFSGSNSGNTATLTISGDPAMDEADYYCQAWDSSTVVFGGGTKLTVL
B7: 2020EP75-E02 scFv (scFv)
scFv: QMQLVQSGAEVKKPGSSVKVSCKASGGTFSSYAISWVRQAPGQGLEWMGGIIPIFGTANYAQKFQGRVTITADKSTSTAYMELSSLRSEDTAVYYCARPRDYRAQYYFDYWGQGTLVTVSSGGGGSGGGGSGGGGSDIVMTQSPSSLSASVGDRVTITCRAGQDIDTSVNWYQLKPGKAPRLLIYASSSLQTGVPSRFSGGGSGAEFTLTISSLQPEDFATYFCQQTFSTSVTFGGGTKVEIK
B8: 2020EP61-A08 scFv (scFv)
scFv: QVQLVQSGAEVKKPGASVKVSCKASGYTFTSYYMHWVRQAPGQGLEWMGIINPSGGSTSYAQKFQGRVTMTRDTSTSTVYMELSSLRSEDTAVYYCARESGNYYYDSSGYTFDYWGQGTLVTVSSGGGGSGGGGSGGGGSSYVLTQPLSVSVALGQTARITCGGNNIGSKNVHWYQQKPGQAPVLVIYYDSDRPSGIPERFSGSNSGNTATLTISGTQAMDEADYYCQAWDSSTVVFGGGTKLTVL
B9: 2020EP53-D06 scFv (scFv)
scFv: QVQLVQSGGGVVQPGRSLRLSCAASGFTFSSYAMHWVRQAPGKGLEWVAVISYDGSNKYYADSVKGRFTISRDNSKNTLYLQMNSLRAEDTAVYYCARDGEDGYNYISPFDYWGQGTLVTVSSGGGGSGGGGSGGGGSSYELTQPPSVSVAPGETARITCRGNDIGSKSVHWYQQKPGQAPVLVLYYDSDRPSGIPERFSGSNSGNTATLTISSVEAGDEADYYCQVWDIDVVFGGGTKLTVL
B10: 2020EP64-G10 scFv (scFv)
scFv: B9 scFv with G137R, Q226H
B11: 2020EP66-D03 scFv (scFv)
scFv: QVQLQQWGAGLLKPSETLSLTCAVYGGSFSGYYWSWIRQPPGKGLEWIGEINHSGSTNYNPSLKSRVTISVDTSKNQFSLKLSSVTAADTAVYYCARGPPLWNYGKGFDYWGQGTLVTVSSGGGGSGKGGSGGGGSQPVLTQPPSASGTPGQRVTISCSGSSSNIGSNYVYWYQQLPRTAPKLLIYRNNQRPSGVPDRFSGSKSGTSASLAISGLRSEDEADYYCAAWDDSLSAWVFGGGTKLTVL
B12: 2020EP54-B02 scFv (scFv)
scFv: QVQLVQSGAEVKKPGASVKVSCKASGYTFIGYYMHWMRQAPGQGLEWMGRINPNSGGTNYAEKFQGRVTMTRDTSISTAYMELSRLTFNDTAVYYCARWDSSSWKFDSWGQGTLVTVSSGGGGSGGGGSGGGGSEIVLTQSPSSLSASVGDRVTITCQASQDISNYLNWYQQKPGKAPKLLIYDASNLETGVPSRFSGSGSGTDFTFTISSLQPEDIATYYCQQYDNLPITFGQGTRLEIK
B13: 2020EP54-H01 IgG1 (antibody, V domains shown)
VH: QVQLVESGGGVVQPGRSLRLSCAASGFTFSSYGMHWVRQAPGKGLEWVAVISYDGSNKYYADSVKGRFTISRDNSKNTLYLQMNSLRAEDTAVYYCAKGRGWYLDYWGQGTLVTVSS
VL: NFMLTQPPSVSVSPGQTASITCSGDKLGDKYACWYQQKPGQSPVLVMYEDYKRPSGIPARFSGSNSGNTATLTISRVEGGDEGDYYCQVWDSRGPEVIFGGGTKLTVL
notes: also called 2020EP054-H01; EP054-H01, IgG1

The binders below were run against T1, S1 protein of SARS-CoV-2 (recombinant, construct not stated) (SARS-CoV-2, UniProt P0DTC2 16-685) (assay: not given).

**Q.** For B1, which IC50 is on record?
**A.** 38.4 nM

Each binder was assayed against T1, S1 protein of SARS-CoV-2 (recombinant, …) (assay: ELISA, S1 coated, scFv titrated, anti-Flag HRP).

**Q.** For B2, which EC50 is on record?
**A.** 0.525 nM

**Q.** For B1, which EC50 is on record?
**A.** 20.4 nM

**Q.** With B3 as the binder, how does the EC50 read?
**A.** 40.2 nM

**Q.** Which EC50 does the source give for B4 here?
**A.** 5.03 nM

**Q.** B5 was tested. Which EC50 did it give?
**A.** 27.3 nM

**Q.** With B6 as the binder, how does the EC50 read?
**A.** 1.38 nM

**Q.** Which EC50 does the source give for B7 here?
**A.** 0.225 nM

**Q.** With B8 as the binder, how does the EC50 read?
**A.** 5.74 nM

**Q.** B9 was tested. Which EC50 did it give?
**A.** 0.511 nM

**Q.** For B10, which EC50 is on record?
**A.** 0.936 nM

**Q.** For B11, which EC50 is on record?
**A.** 0.514 nM

These binders were tested against T2, RBD of SARS-CoV-2 spike protein S1 (recombinant, construct not stated) (SARS-CoV-2, UniProt P0DTC2 328-533) (assay: ELISA, RBD coated, scFv titrated, anti-Flag HRP).
T2 construct: also called SARS-COV-2, RBD; RBD-AF647

**Q.** Does B2 bind?
**A.** no binding (tested: 200 nM (highest concentration tested))

**Q.** B1 was tested. Which EC50 did it give?
**A.** 5.77 nM

**Q.** How did the EC50 turn out when B3 was run?
**A.** 8.73 nM

**Q.** Does B4 bind?
**A.** no binding (tested: 200 nM (highest concentration tested))

**Q.** How did the EC50 turn out when B5 was run?
**A.** 4.99 nM

**Q.** Which EC50 does the source give for B6 here?
**A.** 0.649 nM

**Q.** Does B7 bind?
**A.** no binding (tested: 200 nM (highest concentration tested))

**Q.** Which EC50 does the source give for B8 here?
**A.** 2.52 nM

**Q.** With B9 as the binder, how does the EC50 read?
**A.** 0.818 nM

**Q.** For B10, which EC50 is on record?
**A.** 0.663 nM

**Q.** With B12 as the binder, how does the EC50 read?
**A.** 75.9 nM

**Q.** Does B11 bind?
**A.** no binding (tested: 200 nM (highest concentration tested))

Each binder was assayed against T1, S1 protein of SARS-CoV-2 (recombinant, …) (assay: ELISA, S1 coated, IgG1 titrated, anti-human Fc HRP).

**Q.** Which EC50 does the source give for B13 here?
**A.** 0.101 nM

Each binder was assayed against T2, RBD of SARS-CoV-2 spike protein S1 … (assay: ELISA, RBD coated, IgG1 titrated, anti-human Fc HRP).

**Q.** B13 was tested. Which EC50 did it give?
**A.** 0.101 nM

Each binder was assayed against T3, S1 protein of SARS-COV (ACRO Biosciences) (SARS-COV, UniProt P59594 14-667) (assay: ELISA, SARS-COV S1 coated, IgG titrated, anti-human Fc HRP).
T3 construct: domain: S1

**Q.** Does B13 bind?
**A.** no binding (tested: 200 nM (highest concentration tested))

The binders below were run against S protein of SARS-COV-2 (Sino Biologics) (SARS-CoV-2, UniProt P0DTC2 16-1213) (assay: ELISA, S protein (Sino Biologics) coated, anti-human Fc HRP).

**Q.** Which EC50 does the source give for B13 here?
**A.** 11.5 nM

The binders below were run against T4, RBD of SARS-COV (ACRO Biosciences) (SARS-COV, UniProt P59594 306-527) (assay: ELISA, SARS-COV RBD coated, IgG titrated, anti-human Fc HRP).
T4 construct: domain: RBD; also called RBD-SARS; SARS-COV, RBD

**Q.** Does B13 bind?
**A.** no binding (tested: 200 nM (highest concentration tested))

The binders below were run against S1-Fc (SARS-CoV-2 S1 protein, Fc fusion) (SARS-CoV-2, UniProt P0DTC2 16-685) (assay: SPR (Biacore T200), S1 captured on anti-human Fc chip, scFv injected).

**Q.** How did the Kd turn out when B2 was run?
**A.** 2.3 nM

**Q.** What about the koff of the same binder?
**A.** 0.00142 s⁻¹

**Q.** What about the kon of the same binder?
**A.** 614000 M⁻¹ s⁻¹

**Q.** B1 was tested. Which Kd did it give?
**A.** 52.5 nM

**Q.** What about the koff of the same binder?
**A.** 0.0052 s⁻¹

**Q.** What about the kon of the same binder?
**A.** 99000 M⁻¹ s⁻¹

**Q.** What does the source list for B3?
**A.** Kd: 73.6 nM; koff: 0.00693 s⁻¹; kon: 94100 M⁻¹ s⁻¹

**Q.** How did the Kd turn out when B4 was run?
**A.** 37.6 nM

**Q.** And the koff?
**A.** 0.0019 s⁻¹

**Q.** What about the kon of the same binder?
**A.** 50600 M⁻¹ s⁻¹

**Q.** Which Kd does the source give for B7 here?
**A.** 4.46 nM

**Q.** What about the koff of the same binder?
**A.** 0.00174 s⁻¹

**Q.** And the kon?
**A.** 390000 M⁻¹ s⁻¹

**Q.** How did the Kd turn out when B9 was run?
**A.** 7.84 nM

**Q.** What about the koff of the same binder?
**A.** 0.00204 s⁻¹

**Q.** What about the kon of the same binder?
**A.** 260000 M⁻¹ s⁻¹

**Q.** Which Kd does the source give for B10 here?
**A.** 11.2 nM

**Q.** What about the koff of the same binder?
**A.** 0.00242 s⁻¹

**Q.** What about the kon of the same binder?
**A.** 215000 M⁻¹ s⁻¹

**Q.** Which results are given for B12?
**A.** Kd: 91.8 nM; koff: 0.00366 s⁻¹; kon: 39900 M⁻¹ s⁻¹

**Q.** What does the source list for B11?
**A.** Kd: 19.5 nM; koff: 0.00256 s⁻¹; kon: 131000 M⁻¹ s⁻¹

What follows are binders tested against T5, SARS-CoV-2-RBD (328-533)-Fc (SARS-CoV-2) (assay: SPR (Biacore T200), RBD captured on anti-human Fc chip, scFv injected).
T5 construct: also called RBD-Fc

**Q.** What does the source list for B1?
**A.** Kd: 31.4 nM; koff: 0.00265 s⁻¹; kon: 84300 M⁻¹ s⁻¹

**Q.** Which Kd does the source give for B6 here?
**A.** 6.14 nM

**Q.** And the koff?
**A.** 0.00302 s⁻¹

**Q.** What about the kon of the same binder?
**A.** 491000 M⁻¹ s⁻¹

**Q.** B8 was tested. Which Kd did it give?
**A.** 69.4 nM

**Q.** What about the koff of the same binder?
**A.** 0.00191 s⁻¹

**Q.** And the kon?
**A.** 27500 M⁻¹ s⁻¹

**Q.** How did the Kd turn out when B9 was run?
**A.** 4.4 nM

**Q.** What about the koff of the same binder?
**A.** 0.0011 s⁻¹

**Q.** What about the kon of the same binder?
**A.** 251000 M⁻¹ s⁻¹

**Q.** Which Kd does the source give for B12 here?
**A.** 69.5 nM

**Q.** What about the koff of the same binder?
**A.** 0.00242 s⁻¹

**Q.** What about the kon of the same binder?
**A.** 34900 M⁻¹ s⁻¹
